This data set concerns the molecule itself. Nature of the data set: native MS.

B1: AAV1 VP3 (VP3M, VP3 203-736) of the AAV1-VP3-only capsid (natural protein, adeno-associated virus serotype 1 (AAV1), UniProt Q9WBP8 204-736, looked up)
chain: ASGGGAPMADNNEGADGVGNASGNWHCDSTWLGDRVITTSTRTWALPTYNNHLYKQISSASTGASNDNHYFGYSTPWGYFDFNRFHCHFSPRDWQRLINNNWGFRPKRLNFKLFNIQVKEVTTNDGVTTIANNLTSTVQVFSDSEYQLPYVLGSAHQGCLPPFPADVFMIPQYGYLTLNNGSQAVGRSSFYCLEYFPSQMLRTGNNFTFSYTFEEVPFHSSYAHSQSLDRLMNPLIDQYLYYLNRTQNQSGSAQNKDLLFSRGSPAGMSVQPKNWLPGPCYRQQRVSKTKTDNNNSNFTWTGASKYNLNGRESIINPGTAMASHKDDEDKFFPMSGVMIFGKESAGASNTALDNVMITDEEEIKATNPVATERFGTVAVNFQSSSTDPATGDVHAMGALPGMVWQDRDVYLQGPIWAKIPHTDGHFHPSPLMGGFGLKNPPPQILIKNTPVPANPPAEFSATKFASFITQYSTGQVSVEIEWELQKENSKRWNPEVQYTSNYAKSANVDFTVDNNGLYTEPRPIGTRYLTRPL
modifications: N-terminal methionine M203 removed; A204 acetylated at the N terminus
For orientation: stoichiometry N means the number of molecules, sites or subunits per partner or assembly. On to B1, for which the “stoichiometry N” value was found to be 60.

B2: AAV1-M211V-VP3 (VP3 of the AAV1-M211V-VP3-only capsid) (natural protein, adeno-associated virus serotype 1 (AAV1), UniProt Q9WBP8 204-736, looked up)
chain: ASGGGAPVADNNEGADGVGNASGNWHCDSTWLGDRVITTSTRTWALPTYNNHLYKQISSASTGASNDNHYFGYSTPWGYFDFNRFHCHFSPRDWQRLINNNWGFRPKRLNFKLFNIQVKEVTTNDGVTTIANNLTSTVQVFSDSEYQLPYVLGSAHQGCLPPFPADVFMIPQYGYLTLNNGSQAVGRSSFYCLEYFPSQMLRTGNNFTFSYTFEEVPFHSSYAHSQSLDRLMNPLIDQYLYYLNRTQNQSGSAQNKDLLFSRGSPAGMSVQPKNWLPGPCYRQQRVSKTKTDNNNSNFTWTGASKYNLNGRESIINPGTAMASHKDDEDKFFPMSGVMIFGKESAGASNTALDNVMITDEEEIKATNPVATERFGTVAVNFQSSSTDPATGDVHAMGALPGMVWQDRDVYLQGPIWAKIPHTDGHFHPSPLMGGFGLKNPPPQILIKNTPVPANPPAEFSATKFASFITQYSTGQVSVEIEWELQKENSKRWNPEVQYTSNYAKSANVDFTVDNNGLYTEPRPIGTRYLTRPL
modifications: N-terminal acetylation (NTA)
Regarding B2, the binding result is “binds”.

The values are drawn from article PMC10238842 (Molecular Therapy. Methods & Clinical Development, 2023).
